Data on one molecule can be found in patent publication US20210015937A1 (CRESCENDO BIOLOGICS, published 2021).

Assay [1] addresses T1, human LAG-3 expressed on cells (human, UniProt P18627 23-525).
T1 sequence: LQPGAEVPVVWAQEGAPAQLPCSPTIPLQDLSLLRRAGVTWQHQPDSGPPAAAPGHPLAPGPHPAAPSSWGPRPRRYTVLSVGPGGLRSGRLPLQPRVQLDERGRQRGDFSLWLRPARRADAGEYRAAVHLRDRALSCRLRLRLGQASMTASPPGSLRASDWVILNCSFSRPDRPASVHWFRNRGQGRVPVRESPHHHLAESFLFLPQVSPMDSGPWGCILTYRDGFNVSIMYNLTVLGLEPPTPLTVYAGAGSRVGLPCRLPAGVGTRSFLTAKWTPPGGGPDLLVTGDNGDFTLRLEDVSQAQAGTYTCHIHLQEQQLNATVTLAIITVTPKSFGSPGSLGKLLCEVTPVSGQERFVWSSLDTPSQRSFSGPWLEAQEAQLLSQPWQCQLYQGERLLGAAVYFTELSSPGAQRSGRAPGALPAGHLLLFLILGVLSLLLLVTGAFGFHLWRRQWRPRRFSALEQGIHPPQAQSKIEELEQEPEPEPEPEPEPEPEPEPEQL
The experiment in a line: cell-based or functional assay.

For assay [2], the target named is T2, mouse LAG-3 (mouse, UniProt Q61790 24-442).
T2 construct: The construct is not described; also called mouse LAG-3 (Sino Biological cat no 53069-M02H); Mouse LAG3 (R&D Biotechne cat 3328-L3)
T2 sequence (looked up): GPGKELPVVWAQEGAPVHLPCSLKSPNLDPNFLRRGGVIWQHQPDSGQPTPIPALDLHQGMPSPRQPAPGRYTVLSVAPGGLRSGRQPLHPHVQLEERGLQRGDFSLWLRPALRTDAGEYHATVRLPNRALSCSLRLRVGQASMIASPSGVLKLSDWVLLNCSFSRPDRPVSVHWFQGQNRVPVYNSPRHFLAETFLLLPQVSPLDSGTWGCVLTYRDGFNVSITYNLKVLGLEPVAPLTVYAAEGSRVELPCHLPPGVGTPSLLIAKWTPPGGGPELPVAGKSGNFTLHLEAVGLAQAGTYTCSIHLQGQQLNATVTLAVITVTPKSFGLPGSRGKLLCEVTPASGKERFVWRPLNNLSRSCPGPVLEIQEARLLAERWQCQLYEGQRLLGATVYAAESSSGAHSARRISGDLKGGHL
The experiment in a line: ELISA, coated antigen, anti-HIS HRP detection. The procedure:
(§1) To screen specificity by ELISA, antigens were coated at 1-5 ug/ml and blocked with Marvel milk powder. VH were added at 10 μg/ml and incubated for 1 hour. After washing, HRP-conjugated anti-HIS antibody (Miltenyi cat no. 130-092-785) was added. TMB substrate and acidic solution were used to develop colorimetric signal.
A general note: In an ELISA, binding on a coated surface is turned into a signal by an enzyme label.

Assay [3] deals with T3, CD4 (UniProt P01730 26-390).
T3 construct: also called CD4 (R&D Biotechne 514-CD)
The experiment in a line: ELISA, coated antigen, anti-HIS HRP detection. The procedure: as §1

The target of assay [4] is T4, human LAG-3 domains 1-2-Fc (human, UniProt P18627 23-261, limits assumed).
T4 construct: Domains were identified as per Huard et al 1997 PNAS 94:5744-9; also called truncated LAG-3
T4 sequence: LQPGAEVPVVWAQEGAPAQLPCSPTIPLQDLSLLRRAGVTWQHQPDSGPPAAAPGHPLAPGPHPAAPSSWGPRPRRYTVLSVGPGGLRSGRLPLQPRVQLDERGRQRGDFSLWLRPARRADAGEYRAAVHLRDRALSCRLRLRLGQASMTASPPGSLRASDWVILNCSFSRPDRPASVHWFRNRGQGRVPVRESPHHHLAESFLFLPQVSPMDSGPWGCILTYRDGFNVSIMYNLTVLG
The assay is described as follows: BLI (Octet); human LAG-3 domains 1-2-Fc captured on protein G biosensors, 1:1 fit. The procedure:
Binding kinetics for multi-valent and bispecific VH were also measured in real-time bio-layer interferometer based biosensor Octet (ForteBio). […] All the binding studies were performed in HBS-ET Octet kinetics buffer. Biosensors were washed in Octet kinetics buffer in between different steps. […] The contact time for each of the association steps was 150 seconds and the dissociation step was 400 seconds. […] To compare the constructs, kinetic association (kₐ) and dissociation (kd) rate constants were determined by processing and fitting the data to a 1:1 binding model using ForteBio Analysis software.
A general note: BLI is a label-free optical method that tracks binding on a fibre tip over time.

Assay [5] deals with T5, recombinant human LAG-3-Fc (human, UniProt P18627 23-450).
T5 construct: also called human LAG-3 (R&D Systems cat no. 2319-L3); LAG3 antigen
T5 sequence: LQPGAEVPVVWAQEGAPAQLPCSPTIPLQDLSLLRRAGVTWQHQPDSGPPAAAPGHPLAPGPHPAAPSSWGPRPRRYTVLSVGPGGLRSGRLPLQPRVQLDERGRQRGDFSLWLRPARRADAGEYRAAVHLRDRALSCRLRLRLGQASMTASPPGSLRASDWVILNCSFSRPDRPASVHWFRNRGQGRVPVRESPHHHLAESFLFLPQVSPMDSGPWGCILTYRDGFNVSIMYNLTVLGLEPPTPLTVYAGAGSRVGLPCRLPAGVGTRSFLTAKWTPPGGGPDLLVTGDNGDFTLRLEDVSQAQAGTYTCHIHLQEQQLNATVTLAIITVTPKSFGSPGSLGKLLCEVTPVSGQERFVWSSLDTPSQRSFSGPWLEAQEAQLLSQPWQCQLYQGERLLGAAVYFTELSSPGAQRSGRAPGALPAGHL
The experiment in a line: competition ELISA; LAG-3-Fc pre-incubated with VH, binding to coated Galectin-3. An excerpt:
The plate was blocked with 3% Marvel skimmed milk powder in PBS. […] Wash steps were done 3 times with PBS 0.05% Tween. Colour was developed using TMB and 0.5M sulphuric acid solution.

B1: VH1.1-6GS-VH1.1-His6 (VHH)
chain: EVQLVESGGGVVRPGGSLRLSCSASGFTFDDYGMSWVRQAPGKGLEWVSGIHWNGGNSGYADSVKGRFTISRDNAKNSLYLQMNSLRAEDTALYYCARIPREDCSSASCYTDAIDFWGPGTMVTVSSGGGGSGGGGSGGGGSGGGGSGGGGSGGGGSEVQLVESGGGVVRPGGSLRLSCSASGFTFDDYGMSWVRQAPGKGLEWVSGIHWNGGNSGYADSVKGRFTISRDNAKNSLYLQMNSLRAEDTALYYCARIPREDCSSASCYTDAIDFWGPGTMVTVSSAAAHHHHHH
notes: Tandem fusion of two VH 1.1, bivalent for LAG-3; The entry includes the C-terminal AAA-His6; also called 1.1-6GS-1.1; bivalent 1.1-6GS-1.1
For B1, the “EC50 (M), NFAT-Luciferase Reporter Gene assay (LAG-3:MHCII)” value in assay [1] is 4.1e-09 M. Further, the binding result in assay [2] was “no binding (tested: 10 µg/ml VH)”. Moreover, the binding result in assay [3] is recorded as “no binding (tested: 10 µg/ml VH)”. In assay [4], this molecule displayed a Kd of 0.811 nM, a koff of 0.000522 s⁻¹ and a kon of 644000 M⁻¹ s⁻¹. In assay [5], the IC50 was found to be 34 nM.

For orientation: Kd means the concentration at which binding is half-saturated. Low values mean a tighter complex, high ones a looser complex. Broadly, the koff is the rate constant with which the complex falls apart. Broadly, the kon is the second-order rate constant of association. Higher therefore signals faster complex formation. For orientation: IC50 means the concentration that gives 50% inhibition.
